# T1: Boi1 SH3 (BOI1_YEAST), P38041
# T1 chain: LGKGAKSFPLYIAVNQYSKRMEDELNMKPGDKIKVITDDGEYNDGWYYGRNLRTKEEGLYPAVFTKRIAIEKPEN
# T2: Boi2 SH3 (BOI2_YEAST), P39969
# T2 chain: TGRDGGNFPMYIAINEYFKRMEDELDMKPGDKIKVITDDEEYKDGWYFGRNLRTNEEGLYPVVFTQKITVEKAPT
# T3: Rvs167 SH3 (RV167_YEAST), P39743
# T3 chain: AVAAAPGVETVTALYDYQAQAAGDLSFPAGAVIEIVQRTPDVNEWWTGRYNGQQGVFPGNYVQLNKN
# T4: Yfr024 SH3 (LSB3_YEAST), P43603
# T4 chain: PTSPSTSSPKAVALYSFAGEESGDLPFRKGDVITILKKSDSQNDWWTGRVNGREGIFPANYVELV
# T5: Yhr016c SH3 (YSC84_YEAST), P32793
# T5 chain: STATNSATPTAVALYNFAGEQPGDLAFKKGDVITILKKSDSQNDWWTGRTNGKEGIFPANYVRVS
# Molecular target: T1, Boi1 SH3 (BOI1_YEAST), P38041
# Assay: SPOT array
row,"normalised SPOT signal, Boehringer light units (BLU); mean over the file's lines of this peptide",Binder
1,152,INQPSTPKKLKRKS [YDR501W 316-329]
2,118,ILYPDIPGKNYFLT [YOL087C 29-42]
3,275,ISTPEVPKKKIKTG [YIL010W 28-41]
4,110,ISTPPPPPKMAIPA [YFR019W 390-403]
5,90.8,ISNPSSPAKTKRDI [YMR137C 188-201]
6,12.7,ILLPPLPERAYIMD [YGL144C 459-472]
7,181,ITSPPLPPRADSIE [YMR192W 122-135]
8,86.7,IRYPVTPNKASLDR [YOR384W 132-145]
9,97.5,IPTPSKPLKKRKKR [YCL027W 390-403]
10,92.5,ILSPGYPNKSFNNK [YGL073W 653-666]
11,8730,ILTPDFPERRRLMK [YLR233C 283-296]
12,5520,IYTPYIPFRNSRTW [YLR240W 75-88]
13,150,ITLPRRPAKKIQLG [YBR122C 41-54]
14,327,IQHPFLPRKIPIIT [YGR094W 408-421]
15,60.8,ISRPVQPFKVGSIG [YPR185W 368-381]
16,258,IMPPPKPFRHGLDS [YBR108W 517-530]
17,1120,IVNPFIPRRPYSNV [YDR409W 859-872]

# Molecular target: T2, Boi2 SH3 (BOI2_YEAST), P39969
# Assay: SPOT array
row,"normalised SPOT signal, Boehringer light units (BLU); mean over the file's lines of this peptide",Binder
1,22.2,INQPSTPKKLKRKS [YDR501W 316-329]
2,46.9,ILYPDIPGKNYFLT [YOL087C 29-42]
3,23.9,ISTPEVPKKKIKTG [YIL010W 28-41]
4,34.4,ISTPPPPPKMAIPA [YFR019W 390-403]
5,48.8,ISNPSSPAKTKRDI [YMR137C 188-201]
6,38.9,ILLPPLPERAYIMD [YGL144C 459-472]
7,35.5,ITSPPLPPRADSIE [YMR192W 122-135]
8,166,IRYPVTPNKASLDR [YOR384W 132-145]
9,50.2,IPTPSKPLKKRKKR [YCL027W 390-403]
10,68.5,ILSPGYPNKSFNNK [YGL073W 653-666]
11,99.2,ILTPDFPERRRLMK [YLR233C 283-296]
12,1450,IYTPYIPFRNSRTW [YLR240W 75-88]
13,106,ITLPRRPAKKIQLG [YBR122C 41-54]
14,192,IQHPFLPRKIPIIT [YGR094W 408-421]
15,79.1,ISRPVQPFKVGSIG [YPR185W 368-381]
16,222,IMPPPKPFRHGLDS [YBR108W 517-530]
17,142,IVNPFIPRRPYSNV [YDR409W 859-872]

# Molecular target: T3, Rvs167 SH3 (RV167_YEAST), P39743
# Assay: SPOT array
row,"normalised SPOT signal, Boehringer light units (BLU); mean over the file's lines of this peptide",Binder
1,62.6,INQPSTPKKLKRKS [YDR501W 316-329]
2,32.7,ILYPDIPGKNYFLT [YOL087C 29-42]
3,0,ISTPEVPKKKIKTG [YIL010W 28-41]
4,26.6,ISTPPPPPKMAIPA [YFR019W 390-403]
5,17.6,ISNPSSPAKTKRDI [YMR137C 188-201]
6,14900,ILLPPLPERAYIMD [YGL144C 459-472]
7,31300,ITSPPLPPRADSIE [YMR192W 122-135]
8,41.2,IRYPVTPNKASLDR [YOR384W 132-145]
9,85,IPTPSKPLKKRKKR [YCL027W 390-403]
10,100,ILSPGYPNKSFNNK [YGL073W 653-666]
11,245,ILTPDFPERRRLMK [YLR233C 283-296]
12,474,IYTPYIPFRNSRTW [YLR240W 75-88]
13,13700,ITLPRRPAKKIQLG [YBR122C 41-54]
14,35,IQHPFLPRKIPIIT [YGR094W 408-421]
15,22.7,ISRPVQPFKVGSIG [YPR185W 368-381]
16,1540,IMPPPKPFRHGLDS [YBR108W 517-530]
17,650,IVNPFIPRRPYSNV [YDR409W 859-872]

# Molecular target: T4, Yfr024 SH3 (LSB3_YEAST), P43603
# Assay: SPOT array
row,"normalised SPOT signal, Boehringer light units (BLU); mean over the file's lines of this peptide",Binder
1,2480,INQPSTPKKLKRKS [YDR501W 316-329]
2,116,ILYPDIPGKNYFLT [YOL087C 29-42]
3,4970,ISTPEVPKKKIKTG [YIL010W 28-41]
4,335,ISTPPPPPKMAIPA [YFR019W 390-403]
5,108,ISNPSSPAKTKRDI [YMR137C 188-201]
6,26200,ILLPPLPERAYIMD [YGL144C 459-472]
7,39300,ITSPPLPPRADSIE [YMR192W 122-135]
8,94.5,IRYPVTPNKASLDR [YOR384W 132-145]
9,1580,IPTPSKPLKKRKKR [YCL027W 390-403]
10,293,ILSPGYPNKSFNNK [YGL073W 653-666]
11,13700,ILTPDFPERRRLMK [YLR233C 283-296]
12,3280,IYTPYIPFRNSRTW [YLR240W 75-88]
13,48600,ITLPRRPAKKIQLG [YBR122C 41-54]
14,1120,IQHPFLPRKIPIIT [YGR094W 408-421]
15,1120,ISRPVQPFKVGSIG [YPR185W 368-381]
16,30900,IMPPPKPFRHGLDS [YBR108W 517-530]
17,7710,IVNPFIPRRPYSNV [YDR409W 859-872]

# Molecular target: T5, Yhr016c SH3 (YSC84_YEAST), P32793
# Assay: SPOT array
row,"normalised SPOT signal, Boehringer light units (BLU); mean over the file's lines of this peptide",Binder
1,126,INQPSTPKKLKRKS [YDR501W 316-329]
2,115,ILYPDIPGKNYFLT [YOL087C 29-42]
3,226,ISTPEVPKKKIKTG [YIL010W 28-41]
4,189,ISTPPPPPKMAIPA [YFR019W 390-403]
5,130,ISNPSSPAKTKRDI [YMR137C 188-201]
6,50600,ILLPPLPERAYIMD [YGL144C 459-472]
7,93200,ITSPPLPPRADSIE [YMR192W 122-135]
8,207,IRYPVTPNKASLDR [YOR384W 132-145]
9,213,IPTPSKPLKKRKKR [YCL027W 390-403]
10,282,ILSPGYPNKSFNNK [YGL073W 653-666]
11,1780,ILTPDFPERRRLMK [YLR233C 283-296]
12,683,IYTPYIPFRNSRTW [YLR240W 75-88]
13,36800,ITLPRRPAKKIQLG [YBR122C 41-54]
14,250,IQHPFLPRKIPIIT [YGR094W 408-421]
15,185,ISRPVQPFKVGSIG [YPR185W 368-381]
16,35500,IMPPPKPFRHGLDS [YBR108W 517-530]
17,1650,IVNPFIPRRPYSNV [YDR409W 859-872]
